This note sets out measurements from patent publication US10766960 (dated 2020).

Common to all, as to assay: SPR
The target of one experiment is T1, FcgRIIa H (human, UniProt P12318).
T1 chain: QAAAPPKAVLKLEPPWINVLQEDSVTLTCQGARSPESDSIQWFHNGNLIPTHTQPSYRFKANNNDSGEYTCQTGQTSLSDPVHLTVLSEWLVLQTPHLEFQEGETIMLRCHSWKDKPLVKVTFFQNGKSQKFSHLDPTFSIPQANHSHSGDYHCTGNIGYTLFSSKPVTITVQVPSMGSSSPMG

The next experiment deals with T2, FcgRIIa R (human, UniProt P12318).
T2 chain: T1 chain with H134R

In experiment [1] the target is T3, FcgRIIIa V (human, UniProt P08637).
In another experiment the target is T4, FcgRIIb (human, UniProt P31994).
T4 chain: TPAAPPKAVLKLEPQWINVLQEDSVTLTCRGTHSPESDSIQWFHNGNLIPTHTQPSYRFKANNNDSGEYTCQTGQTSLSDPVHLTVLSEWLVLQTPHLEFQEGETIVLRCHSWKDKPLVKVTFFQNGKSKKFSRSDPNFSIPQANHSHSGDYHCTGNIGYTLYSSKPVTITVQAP

The target in experiment [2] is T3, FcgRIIIa V. This is another data set of the same source.
In another experiment the target is T5, FcgRIa (human, UniProt P12314).
T5 chain: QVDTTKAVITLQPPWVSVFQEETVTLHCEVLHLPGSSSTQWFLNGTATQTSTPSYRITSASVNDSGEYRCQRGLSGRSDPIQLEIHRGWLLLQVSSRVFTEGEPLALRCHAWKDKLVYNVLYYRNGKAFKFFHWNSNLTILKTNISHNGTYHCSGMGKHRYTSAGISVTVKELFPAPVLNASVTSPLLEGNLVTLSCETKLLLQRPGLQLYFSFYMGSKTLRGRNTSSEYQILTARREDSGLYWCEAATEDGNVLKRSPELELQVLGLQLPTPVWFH

Changes are numbered by the printed parent chain. Read-outs that look alike come from different tables or passages of the source.

T3 sequence (P08637 17-208 F176V): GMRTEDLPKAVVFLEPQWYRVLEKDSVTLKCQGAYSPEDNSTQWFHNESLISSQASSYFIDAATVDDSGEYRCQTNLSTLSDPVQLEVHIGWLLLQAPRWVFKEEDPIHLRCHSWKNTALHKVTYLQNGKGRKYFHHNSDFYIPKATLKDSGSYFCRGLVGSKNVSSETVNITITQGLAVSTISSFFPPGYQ

B1: IL6R-BP253/IL6R-L (antibody)
chain 1: QVQLQESGPGLVKPSETLSLTCAVSGHSISHDHAWSWVRQPPGEGLEWIGFISYSGITNYNPSLQGRVTISRDNSKNTLYLQMNSLRAEDTAVYYCARSLARTTAMDYWGEGTLVTVSSASTKGPSVFPLAPSSKSTSGGTAALGCLVKDYFPEPVTVSWNSGALTSGVHTFPAVLQSSGLYSLSSVVTVPSSSLGTQTYICNVNHKPSNTKVDKKVEPKSCDKTHTCPPCPAPELLGGPSVFLFPPKPKDTLMISRTPEVTCVVVDVEHEDPEVKFNWYVDGVEVHNAKTKPREEQYNSTYRVVSVLTVLHQDWLNGKEYKCKVSNKAFPAPIEKTISKAKGQPREPQVYTLPPSRDELTKNQVSLTCLVKGFYPSDIAVEWESNGQPENNYKTTPPVLDSDGSFFLYSKLTVDKSRWQQGNVFSCSVMHEALHNHYTQESLSLSP
chain 2: not shown
As usually defined, the Kd is the equilibrium constant for the complex coming apart. The low end stands for higher affinity, the high end for lower affinity. For the molecule B1, the Kd in the experiment with FcgRIIa H is 860 nM; with FcgRIIa R, 2.3 nM; with FcgRIIIa V [1], 400 nM; in the experiment with FcgRIIb, 8.9 nM; in the experiment with FcgRIIIa V [2] it was 7.1 µM; with FcgRIa it was 0.05 nM.
